Results published in patent US20080274095A1, “Biocides” (priority 2004, published 2008).

Key:
Caco-2 Host Cells = assay: Host cell toxicity assay by LDH release; assay type: cell-based, human
Experimental: Host cell toxicity assay was performed by measuring the release of lactate dehydrogenase (LDH) in the medium using a CYTOTOX 96 Non-Radioactive Cytotoxicity Assay kit (Promega, Madison, Wis.). Toxicity was therefore classified as non toxic 0-5% LDH release and mild toxicity 5-10% LDH release (ref).

[1] = Tobias et al. 1995; read-out: dissociation constant KD for LPS binding; cited from earlier work

B1: Lactoferrin (protein, UniProt P02788 20-710, looked up)
Lactotransferrin: GRRRSVQWCAVSQPEATKCFQWQRNMRKVRGPPVSCIKRDSPIQCIQAIAENRADAVTLDGGFIYEAGLAPYKLRPVAAEVYGTERQPRTHYYAVAVVKKGGSFQLNELQGLKSCHTGLRRTAGWNVPIGTLRPFLNWTGPPEPIEAAVARFFSASCVPGADKGQFPNLCRLCAGTGENKCAFSSQEPYFSYSGAFKCLRDGAGDVAFIRESTVFEDLSDEAERDEYELLCPDNTRKPVDKFKDCHLARVPSHAVVARSVNGKEDAIWNLLRQAQEKFGKDKSPKFQLFGSPSGQKDLLFKDSAIGFSRVPPRIDSGLYLGSGYFTAIQNLRKSEEEVAARRARVVWCAVGEQELRKCNQWSGLSEGSVTCSSASTTEDCIALVLKGEADAMSLDGGYVYTAGKCGLVPVLAENYKSQQSSDPDPNCVDRPVEGYLAVAVVRRSDTSLTWNSVKGKKSCHTAVDRTAGWNIPMGLLFNQTGSCKFDEYFSQSCAPGSDPRSNLCALCIGDEQGENKCVPNSNERYYGYTGAFRCLAENAGDVAFVKDVTVLQNTDGNNNEAWAKDLKLADFALLCLDGKRKPVTEARSCHLAMAPNHAVVSRMDKVERLKQVLLHQQAKFGRNGSDCPDKFCLFQSETKNLLFNDNTECLARLHGKTTYEKYLGPQYVAGITNLKKCSTSPLLEACEFLRK
notes: Sigma
- % LDH release (Caco-2 Host Cells; 10 μg/ml): 5.9 ± 1.2 %
- % LDH release (Caco-2 Host Cells; 100 μg/ml): 5.8 ± 3.1%

B2: LPS-binding protein (protein, UniProt P18428 26-481, looked up)
Lipopolysaccharide-binding …: ANPGLVARITDKGLQYAAQEGLLALQSELLRITLPDFTGDLRIPHVGRGRYEFHSLNIHSCELLHSALRPVPGQGLSLSISDSSIRVQGRWKVRKSFFKLQGSFDVSVKGISISVNLLLGSESSGRPTVTASSCSSDIADVEVDMSGDLGWLLNLFHNQIESKFQKVLESRICEMIQKSVSSDLQPYLQTLPVTTEIDSFADIDYSLVEAPRATAQMLEVMFKGEIFHRNHRSPVTLLAAVMSLPEEHNKMVYFAISDYVFNTASLVYHEEGYLNFSITDDMIPPDSNIRLTTKSFRPFVPRLARLYPNMNLELQGSVPSAPLLNFSPGNLSVDPYMEIDAFVLLPSSSKEPVFRLSVATNVSATLTFNTSKITGFLKPGKVKVELKESKVGLFNAELLEALLNYYILNTFYPKFNDKLAEGFPLPLLKRVQLYDLGLQIHKDFLFLGANVQYMRV
- Kd [1]: 3.5 nM
